Results: article doi:10.1101/2023.01.23.525122 (bioRxiv, 2023)
Residue numbers refer to the chain shown, from its start. Numbers in names are those of the source.

B1: NPM1-236A (natural protein, UniProt P06748 1-294, looked up)
chain: MAASMAMDMSPLRPQNYLFGCELKADKDYHFKVDNDENEHQLSLRTVSLGAGAKDELHIVEAEAMNYEGSPIKVTLATLKMSVQPTVSLGGFEITPPVVLRLKCGSGPVHISGQHLVAVEEDAESEDEEEEDVKLLSISGKRSAPGGGSKVPQKKVKLAADEDDDDDDEEDDDEDDDDDDFDDEEAEEKAPVKKSIRDTPAKNAQKSNQNGKDSKPSSTPRSKGQESFKKQEKTPKTPKGPSSVEDIKAKMQASIEKGGSLPKVEAKFINYVKNCFRMTDQEAIQDLWQWRKSL
B2: NPM1-234567A (natural protein, UniProt P06748 1-294, looked up)
chain: B1 chain with S4A, M5A, M7A
B3: NPM1-T4sD (natural protein, UniProt P06748 1-294, looked up)
chain: B1 chain with A2E, A3D, A6D, T199D, T219D, T234D, T237D
B4: NPM1(1–160) (domain or fragment, UniProt P06748 1-160, looked up)
chain: MEDSMDMDMSPLRPQNYLFGCELKADKDYHFKVDNDENEHQLSLRTVSLGAGAKDELHIVEAEAMNYEGSPIKVTLATLKMSVQPTVSLGGFEITPPVVLRLKCGSGPVHISGQHLVAVEEDAESEDEEEEDVKLLSISGKRSAPGGGSKVPQKKVKLAA
B5: NPM1(1–130) (domain or fragment, UniProt P06748 1-130, looked up)
chain: MEDSMDMDMSPLRPQNYLFGCELKADKDYHFKVDNDENEHQLSLRTVSLGAGAKDELHIVEAEAMNYEGSPIKVTLATLKMSVQPTVSLGGFEITPPVVLRLKCGSGPVHISGQHLVAVEEDAESEDEEE
B6: NPM1(1–188) (domain or fragment, UniProt P06748 1-188, looked up)
chain: MEDSMDMDMSPLRPQNYLFGCELKADKDYHFKVDNDENEHQLSLRTVSLGAGAKDELHIVEAEAMNYEGSPIKVTLATLKMSVQPTVSLGGFEITPPVVLRLKCGSGPVHISGQHLVAVEEDAESEDEEEEDVKLLSISGKRSAPGGGSKVPQKKVKLAADEDDDDDDEEDDDEDDDDDDFDDEEAEE
B7: NPM1(1–140) (domain or fragment, UniProt P06748 1-140, looked up)
chain: MEDSMDMDMSPLRPQNYLFGCELKADKDYHFKVDNDENEHQLSLRTVSLGAGAKDELHIVEAEAMNYEGSPIKVTLATLKMSVQPTVSLGGFEITPPVVLRLKCGSGPVHISGQHLVAVEEDAESEDEEEEDVKLLSISG
B8: NPM1(1–150) (domain or fragment, UniProt P06748 1-150, looked up)
chain: MEDSMDMDMSPLRPQNYLFGCELKADKDYHFKVDNDENEHQLSLRTVSLGAGAKDELHIVEAEAMNYEGSPIKVTLATLKMSVQPTVSLGGFEITPPVVLRLKCGSGPVHISGQHLVAVEEDAESEDEEEEDVKLLSISGKRSAPGGGSK
B9: NPM1(1–117) (domain or fragment, UniProt P06748 1-117, looked up)
chain: MEDSMDMDMSPLRPQNYLFGCELKADKDYHFKVDNDENEHQLSLRTVSLGAGAKDELHIVEAEAMNYEGSPIKVTLATLKMSVQPTVSLGGFEITPPVVLRLKCGSGPVHISGQHLV
B10: NPM1(7–117) (domain or fragment, UniProt P06748 7-117, looked up)
chain: MDMSPLRPQNYLFGCELKADKDYHFKVDNDENEHQLSLRTVSLGAGAKDELHIVEAEAMNYEGSPIKVTLATLKMSVQPTVSLGGFEITPPVVLRLKCGSGPVHISGQHLV
B11: NPM1(7–117)-K32A (domain or fragment, UniProt P06748 7-117, looked up)
chain: B10 chain with K26A
B12: NPM1(7–117)-Y67F (domain or fragment, UniProt P06748 7-117, looked up)
chain: B10 chain with Y61F
B13: NPM1(7–117)-Y67H (domain or fragment, UniProt P06748 7-117, looked up)
chain: B10 chain with Y61H

Biological target: the molecule itself
Test: SDS-resistant oligomer detection by SDS-PAGE

Binding result, binds:
B1, B2

Biological target: the molecule itself
Test: SDS-resistant oligomer detection by SDS-PAGE
Remark: another data set of the same source

Binding result, binds:
B3

Biological target: the molecule itself
Test: SDS-resistant oligomer detection by SDS-PAGE
Remark: another data set of the same source

Binding result, binds:
B4, B5, B6, B7, B8, B9

Biological target: the molecule itself
Test: SDS-resistant oligomer detection by SDS-PAGE
Remark: another data set of the same source

Binding result, binds:
B10, B11, B12, B13
